This is an account of results in EP4039818A1.

This test has as its target a-sACE2 (enzymatically active soluble ACE2) as measured in Example 7b (UniProt Q9BYF1). Put plainly: cell-based or functional assay.

The substance “goat polyclonal anti-human ACE2 antibody (R&D Systems, #AF933)” returned an enzymatic activity measurement performed according to the enzymatic activity assay of example 3a of more than 5 µg/mL.
